Measurements published in patent publication US20050032689A1, “Methods for treatment or diagnosis of disease or disorders associated with an APB domain” (New York University, priority 1994, published 2005).

How the values were obtained:
[1] = target: T1, EGF receptor (Homo sapiens, UniProt P00533); assay: Binding of GST fusion proteins to immunoprecipitated EGF receptor phosphorylated in vitro, anti-GST blot; conditions: immunoprecipitated receptor from unstimulated cells, with or without Mn2+ and ATP
T1 construct: expressed in transfected cells; host or cells: HER14 (NIH 3T3 cells expressing human EGF receptor)
Experimental: FIGS. 2A and 2B. Association of GST-Shc 1-209 with the EGF Receptor (EGFR). A, HER14 lysates from either EGF-stimulated (+) or unstimulated (−) cells (5×10^6 cells) were incubated with 3 μg of GST fusion protein immobilized on glutathione-agarose beads. The bound proteins were washed, subjected to SDS-PAGE, transferred to nitrocellulose and immunoblotted with anti-EGF receptor antibody, anti-C (anti-EGFR). HER14 lysate (4×10^5 cells) was run directly on the gel in lanes 5 and 6. B, unstimulated HER14 lysates (5×10^6 cells) were immunoprecipitated with anti-EGFR antibody (mAb 108). The immobilized receptor was then phosphorylated (+) by the addition of 5 mM MnCl2 and 50 μM ATP or left unphosphorylated (−) by adding MnCl2 alone. Bacterial lysates containing 5 μg of GST, GST-Grb7, and GST-Shc 1-209 were then diluted in 1 ml of 1% Triton X-100 lysis buffer, added to the immobilized receptor and incubated at 4° C. for 90 min. The bound proteins were washed and together with 40 μl of the post-binding supernatant separated by SDS-PAGE and transferred to nitrocellulose. […]
(§1) Binding Studies—GST fusion proteins were expressed using standard techniques (Ausubel, F. M., et al. Current Protocols in Molecular Biology, (1992) Wiley Interscience, New York). Protein concentration was determined by SDS-PAGE (polyacrylamide gel electrophoresis) using bovine serum albumin as a standard. […]

[2] = system: EGF receptor mutants (Y5F, CD196); assay: Binding of GST-Shc 1-209 to EGF receptor autophosphorylation mutants from NIH 3T3 lysates; conditions: all tyrosine-phosphorylated residues mutated to phenylalanine or carboxyl terminus deleted
Experimental: FIG. 3. Association of GST-Shc 1-209 with mutant forms of the EGF receptor. NIH 3T3 cells overexpressing various EGF receptor mutants were stimulated with EGF (200 ng/ml) for 3 min and then lysed. Wild type EGF receptor (W.T.) contains all five known EGF receptor autophosphorylation sites, Y2F has Tyr-992 and Tyr-1068 mutated to phenylalanine, Y5F has all five known EGF receptor autophosphorylation sites mutated to phenylalanine, and CD196 has a carboxyterminal deletion of 196 amino acids deleting all known autophosphorylation sites (Li, N., et al. (1994) Oncogene (In Press). Beads containing GST-Shc 1-209 fusion protein (3 μg) were added to the various lysates containing equal amounts of the receptor (left panels) or the lysates were immunoprecipitated with the anti-EGF receptor (EGFR) antibody (mAb108) (right panels). All samples were incubated at 4° C. for 90 min. The bound proteins were then washed, subjected to SDS-PAGE and transferred to nitrocellulose. […]
as §1

B1: Shc 1-209: Shc amino terminus, first 209 amino acids of murine p52Shc, generated as a GST fusion protein (protein, UniProt P98083 1-209, looked up, fragment)
chain: MDLLPPKPKYNPLRNESLSSLEEGASGSTPPEELPSPSASSLGPILPPLPGDDSPTTLCSFFPRMSNLKLANPAGGRLGPKGEPGKAAEDGEGSAGAALRDSGLLPLLQDMNKLSGGGGRRTRVEGGQLGGEEWTRHGSFVNKPTRGWLHPNDKVMGPGVSYLVRYMGCVEVLQSMRALDFNTRTQVTREAISLVCEAVPGAKGATRRR
modifications: GST fusion
notes: Shc amino terminus, first 209 amino acids of murine p52Shc, generated as a GST fusion protein
Q: Which “binding to EGF receptor phosphorylated in vitro” value [1] does the source give for B1 here?
A: bound directly to phosphorylated but not non-phosphorylated receptors

Q: And the “binding to EGF receptor mutants lacking autophosphorylation sites” value [2]?
A: completely eliminated Shc 1-209 binding
